Laboratory results reported in paper PMC314469, “Protein Interaction Networks by Proteome Peptide Scanning” (PLoS Biology, 2004).

T1: Boi1 SH3 (BOI1_YEAST), P38041
T1 chain: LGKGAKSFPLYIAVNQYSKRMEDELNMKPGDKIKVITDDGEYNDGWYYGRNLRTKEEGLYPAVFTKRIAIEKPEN

T2: Boi2 SH3 (BOI2_YEAST), P39969
T2 chain: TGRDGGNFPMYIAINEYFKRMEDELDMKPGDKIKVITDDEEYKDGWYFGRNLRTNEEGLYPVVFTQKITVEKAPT

T3: Yhr016c SH3 (YSC84_YEAST), P32793
T3 chain: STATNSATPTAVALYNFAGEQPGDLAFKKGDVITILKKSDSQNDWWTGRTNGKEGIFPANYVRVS

T4: Myo5 SH3 (MYO5_YEAST), Q04439
T4 chain: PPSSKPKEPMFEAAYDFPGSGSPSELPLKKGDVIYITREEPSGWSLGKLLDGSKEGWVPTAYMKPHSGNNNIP

T5: Yfr024 SH3 (LSB3_YEAST), P43603
T5 chain: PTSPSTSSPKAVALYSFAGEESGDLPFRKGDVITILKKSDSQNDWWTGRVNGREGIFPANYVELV

T6: Rvs167 SH3 (RV167_YEAST), P39743
T6 chain: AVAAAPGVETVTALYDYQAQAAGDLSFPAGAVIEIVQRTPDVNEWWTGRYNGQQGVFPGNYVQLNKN


Key:
Assay in all cases: SPOT array
[1] = target: Sho1 SH3 (SHO1_YEAST), P40073
Sequence of Sho1 SH3 (SHO1_YEAST), P40073 (P40073 295-366): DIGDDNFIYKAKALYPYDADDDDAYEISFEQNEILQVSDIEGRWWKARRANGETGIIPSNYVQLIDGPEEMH

[2] = target: T1, Boi1 SH3 (BOI1_YEAST), P38041
[3] = target: T2, Boi2 SH3 (BOI2_YEAST), P39969
[4] = target: T3, Yhr016c SH3 (YSC84_YEAST), P32793
[5] = target: T4, Myo5 SH3 (MYO5_YEAST), Q04439
[6] = target: T5, Yfr024 SH3 (LSB3_YEAST), P43603
[7] = target: T6, Rvs167 SH3 (RV167_YEAST), P39743

Binder	normalised SPOT signal, Boehringer light units (BLU); mean over the file's lines of this peptide [1]	normalised SPOT signal, Boehringer light units (BLU); mean over the file's lines of this peptide [2]	normalised SPOT signal, Boehringer light units (BLU); mean over the file's lines of this peptide [3]	normalised SPOT signal, Boehringer light units (BLU); mean over the file's lines of this peptide [4]	normalised SPOT signal, Boehringer light units (BLU); mean over the file's lines of this peptide [5]	normalised SPOT signal, Boehringer light units (BLU); mean over the file's lines of this peptide [6]	normalised SPOT signal, Boehringer light units (BLU); mean over the file's lines of this peptide [7]
TNGPRYSPQNPRPF [YMR124W 350-363]	7.4	30.1	15.5	43.5	158	470	85.3
TLKKKKTPKKPIAA [YKR084C 77-90]	64.1	1510	13	31.6	535	304	30.6
TLDEKESPSVPPTV [YKL148C 624-637]	32.4	58.2	15.4	57.9	212	27	85.7
TLDEKNLPRLPTPF [YKR055W 36-49]	28100	0	0	64.8	205	92.4	64.3
TMKNKPKPTPPSPP [YPR171W 298-311]	47.8	292	52.3	217	910	588	48
TKTDKSYPMSPVDA [YOR208W 444-457]	36.1	52.5	19.3	15.5	150	50.1	105
TLNDRQIPLSPDQM [YAL026C 387-400]	30.3	60.6	27.5	42.6	73.6	60.2	120
